Residue numbers refer to the chain shown, from its start.
T1: murine IL-22 (murine, UniProt Q9JJY9 34-179)
T1 construct: also called mouse IL-22; mIL-22
T1 sequence: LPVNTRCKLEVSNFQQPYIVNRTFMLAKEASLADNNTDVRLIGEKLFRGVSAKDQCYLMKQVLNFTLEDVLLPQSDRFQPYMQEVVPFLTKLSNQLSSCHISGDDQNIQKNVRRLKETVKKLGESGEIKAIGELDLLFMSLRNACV

T2: IL-26 (human, UniProt Q9NPH9)
T2 construct: also called human IL-26
T2 sequence (cytokine, looked up): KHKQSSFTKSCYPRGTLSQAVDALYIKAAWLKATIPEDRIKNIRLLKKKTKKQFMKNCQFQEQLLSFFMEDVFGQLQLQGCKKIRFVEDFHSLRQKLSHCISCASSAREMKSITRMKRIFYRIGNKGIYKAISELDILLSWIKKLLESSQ

T3: rat IL-22 (rat, UniProt G3V6X6 34-178)
T3 sequence: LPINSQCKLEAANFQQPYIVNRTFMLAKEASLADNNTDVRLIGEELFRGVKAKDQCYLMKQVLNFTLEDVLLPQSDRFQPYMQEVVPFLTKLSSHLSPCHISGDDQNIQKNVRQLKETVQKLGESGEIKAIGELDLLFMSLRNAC

T4: human IL-22 (human, UniProt Q9GZX6 34-179)
T4 sequence: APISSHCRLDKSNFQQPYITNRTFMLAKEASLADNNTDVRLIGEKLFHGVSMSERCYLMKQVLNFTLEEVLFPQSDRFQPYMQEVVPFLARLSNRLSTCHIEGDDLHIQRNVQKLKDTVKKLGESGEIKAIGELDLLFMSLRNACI

B1: 097D09 IgG (non-germlined) (antibody, V domains shown)
VH: EVQLVESGGGLVTPGGSLRLSCAASGFTFSDYYMSWVRQAPGRGLEWVSAISGSGGSTYYADSVKGRITISRDNAKNSLYLQMSSLRSEDTAVYYCARGLWVWDPLDYWGRGTLVTVSS
VL: DIQMTQSPSTLSASIGDRVTITCRASEGIYHWLAWYQQKPGKAPKLLIYKASSLASGAPSRFSGSGFGTDFTLTISSLQPDDFATYYCQQYSEFAWTFGGGTKLEIKR
notes: IgG
B2: 375G06 IgG (non-germlined) (antibody, V domains shown)
VH: EVQLVQSGAEVKKPGASVKVSCQASGYTFSDYYIHWVRQTPGQGFEWMGWVNPDTGGTRYAQKFQGWVTMTRDMSNTTAYMELPRLRDDDTAVYYCARDLTGYDYYDRWGQGTLVTVSS
VL: QSVLTQPPSMSVAPGKTATITCGGNNFRNKRVHWYQQRPGQAPVLVIYYDSDRPSGIPERFSGSRSGNTATLTISRVEAGDEADFYCQVWDFLADEAMFGGGTKLTVL
notes: IgG
B3: 376B10 IgG (non-germlined) (antibody, V domains shown)
VH: B2 VH with R85G, Y105Q, D107T, R108A
VL: QSVLTQPPSVSVAPGKTATITCGGNNFRNKRVHWYQQRPGQAPVLVIYYDSDRPSGIPERFSGSRSGNTATLTISRVEAGDEADFYCSTFDPFTDRPLFGGGTKLTVLG
notes: IgG
B4: 367D04 IgG (non-germlined) (antibody, V domains shown)
VH: EVQLVESGGGVVRPGGSLRLSCAASGFTFDDYGMNWVRQAPGKGLEWVSGVNWNGGTRDYAASVKGRFTISRDNAKNSLYLQMNSLRAEDTALYYCARGWYSGSPWSLGHWGRGTLVTVSS
VL: QAVLTQPSSVSGSPGQSVTISCTGASGDVGAYNFVSWYQQHPGKTPKLIIYDVNKRPSGVSNRFSGSKSGNTASLTISRLQAEDESDYYCSSYTSRYTTEFGGGTKVTVLG
notes: IgG
B5: 368D04 IgG (non-germlined) (antibody, V domains shown)
VH: B4 VH with S104A, P105A, S107N, L108M, H110Y
VL: B4 VL with V18I, R79G, S91A, Y93L, T94V, R96D, Y97F, T98S, T99V, E100V
B6: 166G05 IgG (germlined) (antibody, V domains shown)
VH: QVQLVQSGAEVKKPGASVKVSCKASGYTFSDYYIHWVRQAPGQGLEWMGWVNPDTGGTRYAQKFQGRVTMTRDMSISTAYMELSRLRSDDTAVYYCARDLTGFDPFDIWGQGTLVTVSS
VL: SSVLTQPPSVSVAPGKTARITCGGNNFRNKRVHWYQQKPGQAPVLVIYYDSDRPSGIPERFSGSRSGNTATLTISRVEAGDEADYYCQVWDFLTDSGSFGGGTKLTVLG
B7: 355B06 IgG (germlined) (antibody, V domains shown)
VH: QVQLVQSGAEVKKPGASVKVSCKASGYTFTDYYMHWVRQAPGQGLEWVGWINPYTGSAFYAQKFRGRVTMTRDTSISTAYMELSRLRSDDTAVYYCAREPEKFGESSGQLWGRGTLVTVSS
VL: QAVLTQPPSVSGAPGQRVTISCTGSSSNIGAGYGVHWYQQLPGTAPKLLIYGDSNRPSGVPDRFSGSKSGTSASLAITGLQAEDEADYYCQSYDSGLSGYVFGGGTQLTVLG
B8: 355E04 IgG (germlined) (antibody, V domains shown)
VH: B7 VH with D31H, S57G, R65Q, G104D, E105S, S106P, S107N, G108A, Q109E, L110I
VL: B7 VL with D53N, G96S
B9: 356A11 IgG (germlined; Tables 6 and 9) (antibody, V domains shown)
VH: B7 VH with D31N, G104D, E105S, S106D, S107D, G108S, Q109D, L110V
VL: B7 VL with S95N, G96S
B10: 354A08 IgG (germlined) (antibody, V domains shown)
VH: B7 VH with S57G, K102R, E105D, S107T, L110V
VL: B7 VL with D53N, Q91Y, S92H, Y93W, S95K, G96E, L97Q
notes: isotype of this preparation not restated
B11: 356A11 human monoclonal anti-IL-22 antibody (Examples 10, 11, 14, 15) (antibody, V domains shown)
VH: B7 VH with D31N, G104D, E105S, S106D, S107D, G108S, Q109D, L110V
VL: B7 VL with S95N, G96S
B12: 062G05 IgG (non-germlined) (antibody, V domains shown)
VH: QVQLVESGAEVKKPGASVKVSCKASGYTFTSYGISWVRQAPGQGLEWMGWISAYTGNTNYAQKFQGRVTMTTDTSTSTAYMELRSLRSDDTAVYYCARDRGYYDAFDIWGQGTLVTVSS
VL: B1 VL with Y91M, S92G, F94W, A95K, W96A, T97A
notes: IgG

Molecular target: T1, murine IL-22
Test: ELISA: plate coated with 1 µg/ml antigen, IgG added at 1 µg/ml, HRP goat anti-human IgG, A450
Protocol: (§1) Cross species reactivity of germlined and non-germlined optimized antibodies were determined as follows: ELISA plates (Costar, Cat. #3590) were coated overnight with 1 μg/ml of rat, mouse, or human IL-22 or human IL-26 in PBS buffer. Plates were washed with PBST buffer (0.05% Tween20 in PBS) 3 times, then blocked with 1% BSA (Sigma A8918)/PBST for 1 hr at RT. Antibodies were added at 1 μg/ml, incubated 1 hr at 25° C. […] The plates were incubated for 1 hour at 25° C., then washed with PBST, and developed with TMB (KPL, Cat. #50-76-04). Reaction was stopped with 0.18 M H₂SO₄ Plates were read at OD 450 nm.

| binding result | Binder |
| --- | --- |
| no binding (tested: 1 µg/ml) | B1 |

Molecular target: T2, IL-26
Test: as above
Protocol: as §1

| binding result | Binder |
| --- | --- |
| no binding (tested: 1 µg/ml) | B2 |
| no binding (tested: 1 µg/ml) | B3 |
| no binding (tested: 1 µg/ml) | B4 |
| no binding (tested: 1 µg/ml) | B5 |
| no binding (tested: 1 µg/ml) | B1 |
| no binding (tested: 1 µg/ml) | B6 |
| no binding (tested: 1 µg/ml) | B7 |
| no binding (tested: 1 µg/ml) | B8 |
| no binding (tested: 1 µg/ml) | B9 |
| no binding (tested: 1 µg/ml) | B10 |

Molecular target: T3, rat IL-22
Test: cell-based or functional assay

| IC50 (pM) in GROa cell based assay (HT29 cells) [pM] | Binder |
| --- | --- |
| 211 | B11 |

Molecular target: monkey IL-22 (monkey)
Test: cell-based or functional assay

| IC50 (pM) in GROa cell based assay (HT29 cells) [pM] | Binder |
| --- | --- |
| 89.6 | B11 |

Molecular target: T4, human IL-22
Test: cell-based or functional assay

| IC50 (pM) in GROa cell based assay (HT29 cells) [pM] | Binder |
| --- | --- |
| 124 | B11 |

Molecular target: T1, murine IL-22
Test: cell-based or functional assay

| IC50 (pM) in GROa cell based assay (HT29 cells) [pM] | Binder |
| --- | --- |
| 144 | B11 |

Molecular target: T3, rat IL-22
Test: cell-based or functional assay
Remark: another data set of the same source

| IC50 (pM) in BaF3 cell based assay [pM] | Binder |
| --- | --- |
| 10.7 | B11 |

Molecular target: monkey IL-22 (monkey)
Test: cell-based or functional assay
Remark: another data set of the same source

| IC50 (pM) in BaF3 cell based assay [pM] | Binder |
| --- | --- |
| 2.58 | B11 |

Molecular target: T4, human IL-22
Test: cell-based or functional assay
Remark: another data set of the same source

| IC50 (pM) in BaF3 cell based assay [pM] | Binder |
| --- | --- |
| 3.57 | B11 |

Molecular target: T1, murine IL-22
Test: cell-based or functional assay
Remark: another data set of the same source

| IC50 (pM) in BaF3 cell based assay [pM] | Binder |
| --- | --- |
| 2.53 | B11 |

Molecular target: T5, BSA (bovine, UniProt P02769)
T5 construct: also called bovine serum albumin
T5 sequence (P02769 25-607 limits assumed): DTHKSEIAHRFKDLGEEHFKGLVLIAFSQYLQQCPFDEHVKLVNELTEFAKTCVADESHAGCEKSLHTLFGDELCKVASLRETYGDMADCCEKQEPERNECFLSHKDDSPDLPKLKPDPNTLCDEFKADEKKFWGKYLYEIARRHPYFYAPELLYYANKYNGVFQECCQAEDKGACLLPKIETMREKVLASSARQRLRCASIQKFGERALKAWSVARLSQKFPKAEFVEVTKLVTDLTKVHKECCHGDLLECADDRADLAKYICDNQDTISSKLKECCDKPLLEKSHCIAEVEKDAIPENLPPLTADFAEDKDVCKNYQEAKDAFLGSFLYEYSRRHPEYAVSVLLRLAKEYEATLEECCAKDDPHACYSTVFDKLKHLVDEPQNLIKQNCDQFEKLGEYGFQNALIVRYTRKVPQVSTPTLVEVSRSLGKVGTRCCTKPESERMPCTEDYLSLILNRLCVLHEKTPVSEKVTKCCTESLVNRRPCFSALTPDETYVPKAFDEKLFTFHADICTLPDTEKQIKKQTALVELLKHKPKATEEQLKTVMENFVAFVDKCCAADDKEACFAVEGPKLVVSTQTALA
Test: ELISA: plate coated with antigen, IgG added at 1 µg/ml, HRP goat anti-human IgG, A450

| binding result | Binder |
| --- | --- |
| no binding (tested: 1 µg/ml) | B2 |
| no binding (tested: 1 µg/ml) | B3 |
| no binding (tested: 1 µg/ml) | B4 |
| no binding (tested: 1 µg/ml) | B5 |
| no binding (tested: 1 µg/ml) | B1 |
| no binding (tested: 1 µg/ml) | B12 |

Molecular target: T5, BSA
Test: as above
Remark: another data set of the same source

| binding result | Binder |
| --- | --- |
| no binding (tested: 1 µg/ml) | B6 |
| no binding (tested: 1 µg/ml) | B7 |
| no binding (tested: 1 µg/ml) | B8 |
| no binding (tested: 1 µg/ml) | B9 |
| no binding (tested: 1 µg/ml) | B10 |

Molecular target: T4, human IL-22
Test: cell-based or functional assay
Remark: another data set of the same source

| IC50 of IgG (pM) in BaF3-IL-22 proliferation assay [pM] | Binder |
| --- | --- |
| 100 | B2 |
| 119 | B3 |
| 126 | B4 |
| 127 | B5 |
| 197 | B1 |
| 112 | B12 |
| 92 | B7 |
| 100 | B8 |
| 53 | B9 |
| 79 | B10 |
